Measured values published in paper PMC3742741 (PLoS ONE, 2013).
Square brackets hold non-standard residues; d marks the D form. SeMet = C[Se]CC[C@H](N)C(=O)O

What was measured:
[1] = biological target: the molecule itself; assay: crystal structure; twinned P3_(2)21 form, selenomethionine labeled protein, crystal grown at 19 °C in 100 mM Na citrate pH 4.2, 33% PEG 400, 200 mM LiSO4
[2] = biological target: the molecule itself; assay: CD thermal unfolding against protein concentration; midpoint of thermal unfolding at pH 6.0 with 0.25 µM to 5 µM protein
[3] = biological target: T1, His-tagged full-length C-terminal cytoplasmic domain of BAP29 (residues 125-237) (Homo sapiens (Human), UniProt Q9UHQ4); assay: IMAC pull-down
T1 chain: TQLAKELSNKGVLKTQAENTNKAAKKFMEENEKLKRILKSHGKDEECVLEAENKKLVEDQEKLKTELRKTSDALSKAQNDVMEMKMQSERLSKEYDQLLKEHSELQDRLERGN

[4] = biological target: T2, BAP31 full-length C-terminal cytoplasmic region (residues 124-242), untagged (Homo sapiens (Human), UniProt P51572); assay: analytical gel filtration
T2 chain: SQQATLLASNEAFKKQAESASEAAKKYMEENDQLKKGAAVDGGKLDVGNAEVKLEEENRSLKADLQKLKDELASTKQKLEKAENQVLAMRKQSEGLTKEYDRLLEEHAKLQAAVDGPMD

[5] = biological target: T3, His-tagged full-length C-terminal cytoplasmic domain of BAP31 (residues 124-242) (Homo sapiens (Human), UniProt P51572); assay: IMAC pull-down
T3 chain: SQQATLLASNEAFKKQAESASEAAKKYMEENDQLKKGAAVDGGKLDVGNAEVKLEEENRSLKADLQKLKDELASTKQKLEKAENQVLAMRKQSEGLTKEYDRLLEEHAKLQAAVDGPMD

[6] = biological target: the molecule itself; assay: SEC; calibrated gel filtration, Superdex 200, 10-400 µM protein, 20 mM Na-P pH 7.0, 150 mM NaCl, 0.1 mM TCEP; Stoke's radius compared with radii of gyration of dimer and tetramer
P51572 = assay: native MS; native ESI MS, 150 mM NH4 acetate pH 7, 1.24 mg/mL further diluted in 15% acetonitrile and 5% 2-propanol, LTQ-Orbitrap Velos

B1: Selenomethionine labeled BAP31 vDED (residues 168-233), untagged (domain or fragment, human, UniProt P51572 168-233, looked up)
chain: LDVGNAEVKLEEENRSLKADLQKLKDELASTKQKLEKAENQVLA[SeMet]RKQSEGLTKEYDRLLEEHAKL
notes: BAP31, human, UniProt P51572, vDED domain, residues 168-233; Same construct as m1, with selenomethionine; used for the P3_(2)21 crystal form at pH 4.2 (residues 169-220 modeled); also called BAP31 vDED acidic pH (P3_(2)21 form); source: E. coli BL21(DE3) Rosetta 2 grown in minimal medium, purified as the native protein with 2 mM TCEP; not shown: His6, N-terminal, cleaved
B1: binds [1].

B2: BAP31 full-length C-terminal cytoplasmic region (residues 124-242), untagged (domain or fragment, human, UniProt P51572 124-242, looked up)
chain: SQQATLLASNEAFKKQAESASEAAKKYMEENDQLKKGAAVDGGKLDVGNAEVKLEEENRSLKADLQKLKDELASTKQKLEKAENQVLAMRKQSEGLTKEYDRLLEEHAKLQAAVDGPMD
notes: BAP31, human, UniProt P51572, C-terminal cytoplasmic region, residues 124-242; also called BAP31 Cyt; BAP31 full-length cytoplasmic; source: E. coli BL21(DE3) Rosetta 2, purified (IMAC, TEV cleavage, reverse IMAC, gel filtration); not shown: His6, N-terminal, cleaved
B2: binds [2]; no binding [3].

B3: BAP29 full-length C-terminal cytoplasmic region (residues 125-237), untagged (protein)
chain: TQLAKELSNKGVLKTQAENTNKAAKKFMEENEKLKRILKSHGKDEECVLEAENKKLVEDQEKLKTELRKTSDALSKAQNDVMEMKMQSERLSKEYDQLLKEHSELQDRLERGN
B3: no binding [4]; no binding [5].

B4: BAP31 vDED (variant of death effector domain of human BAP31, residues 168-233), untagged (domain or fragment, UniProt P51572 168-233, looked up)
chain: LDVGNAEVKLEEENRSLKADLQKLKDELASTKQKLEKAENQVLAMRKQSEGLTKEYDRLLEEHAKL
notes: BAP31, human, UniProt P51572, vDED domain, residues 168-233; Vector pNIC28-Bsa4; also called vDED domain of BAP31; source: E. coli BL21(DE3) Rosetta 2, purified (IMAC, TEV cleavage, reverse IMAC, gel filtration); not shown: His6, N-terminal, cleaved
With B4 the “stoichiometry N” value [6] was 2 and the “dimer peak height relative to the monomer peak” value (P51572) was ≥35% of the monomer peak height.
